Target: Gluc1-E2F4 (human), Q16254
Test: split reporter
Conditions: remark: other sources report otherwise

Chain of Gluc1-E2F4 (human), Q16254 (Q16254 whole entry): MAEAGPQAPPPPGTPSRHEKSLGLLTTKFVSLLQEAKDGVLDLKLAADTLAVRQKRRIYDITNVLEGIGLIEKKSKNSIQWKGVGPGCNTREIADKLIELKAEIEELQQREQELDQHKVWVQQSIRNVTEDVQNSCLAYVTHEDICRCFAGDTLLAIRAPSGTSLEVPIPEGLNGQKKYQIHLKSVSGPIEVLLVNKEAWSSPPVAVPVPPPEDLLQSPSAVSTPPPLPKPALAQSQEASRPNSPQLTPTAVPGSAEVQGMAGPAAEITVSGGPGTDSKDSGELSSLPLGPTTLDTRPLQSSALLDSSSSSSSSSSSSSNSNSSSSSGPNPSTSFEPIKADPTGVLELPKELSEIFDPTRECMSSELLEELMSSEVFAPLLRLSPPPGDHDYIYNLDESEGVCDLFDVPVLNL

normalized luminescence ratio (NLR): > 40
B1: Gluc2-p130, Q08999 1-1139 (natural protein)
chain: MPSGGDQSPPPPPPPPAAAASDEEEEDDGEAEDAAPPAESPTPQIQQRFDELCSRLNMDEAARAEAWDSYRSMSESYTLEGNDLHWLACALYVACRKSVPTVSKGTVEGNYVSLTRILKCSEQSLIEFFNKMKKWEDMANLPPHFRERTERLERNFTVSAVIFKKYEPIFQDIFKYPQEEQPRQQRGRKQRRQPCTVSEIFHFCWVLFIYAKGNFPMISDDLVNSYHLLLCALDLVYGNALQCSNRKELVNPNFKGLSEDFHAKDSKPSSDPPCIIEKLCSLHDGLVLEAKGIKEHFWKPYIRKLYEKKLLKGKEENLTGFLEPGNFGESFKAINKAYEEYVLSVGNLDERIFLGEDAEEEIGTLSRCLNAGSGTETAERVQMKNILQQHFDKSKALRISTPLTGVRYIKENSPCVTPVSTATHSLSRLHTMLTGLRNAPSEKLEQILRTCSRDPTQAIANRLKEMFEIYSQHFQPDEDFSNCAKEIASKHFRFAEMLYYKVLESVIEQEQKRLGDMDLSGILEQDAFHRSLLACCLEVVTFSYKPPGNFPFITEIFDVPLYHFYKVIEVFIRAEDGLCREVVKHLNQIEEQILDHLAWKPESPLWEKIRDNENRVPTCEEVMPPQNLERADEICIAGSPLTPRRVTEVRADTGGLGRSITSPTTLYDRYSSPPASTTRRRLFVENDSPSDGGTPGRMPPQPLVNAVPVQNVSGETVSVTPVPGQTLVTMATATVTANNGQTVTIPVQGIANENGGITFFPVQVNVGGQAQAVTGSIQPLSAQALAGSLSSQQVTGTTLQVPGQVAIQQISPGGQQQKQGQSVTSSSNRPRKTSSLSLFFRKVYHLAAVRLRDLCAKLDISDELRKKIWTCFEFSIIQCPELMMDRHLDQLLMCAIYVMAKVTKEDKSFQNIMRCYRTQPQARSQVYRSVLIKGKRKRRNSGSSDSRSHQNSPTELNKDRTSRDSSPVMRSSSTLPVPQPSSAPPTPTRLTGANSDMEEEERGDLIQFYNNIYIKQIKTFAMKYSQANMDAPPLSPYPFVRTGSPRRIQLSQNHPVYISPHKNETMLSPREKIFYYFSNSPSKRLREINSMIRTGETPTKKRGILLEDGSESPAKRICPENHSALLRRLQDVANDRGSH
